Data taken from patent US20140322307A1 (LIPOTEC S A, published 2014).
Values belong to the binder of their own block, whether it stands above or below them.

Target: T1, Proteinase-Activated Receptor-2 (human, on human keratinocytes) (human, UniProt P55085 37-397)
T1 sequence (looked up): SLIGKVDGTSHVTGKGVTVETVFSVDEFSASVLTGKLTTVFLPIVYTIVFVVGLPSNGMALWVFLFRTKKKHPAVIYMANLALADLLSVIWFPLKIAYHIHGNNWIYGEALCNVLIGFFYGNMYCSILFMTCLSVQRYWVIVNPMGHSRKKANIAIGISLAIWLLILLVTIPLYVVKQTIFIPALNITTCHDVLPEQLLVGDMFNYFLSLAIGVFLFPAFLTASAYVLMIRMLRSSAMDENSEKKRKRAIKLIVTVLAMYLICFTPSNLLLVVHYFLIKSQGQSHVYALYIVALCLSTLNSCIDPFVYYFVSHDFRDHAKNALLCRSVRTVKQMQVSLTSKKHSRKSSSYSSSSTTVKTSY
Test: cell-based or functional assay

Inhibition PAR-2 activity (calcium fluorescence, human keratinocytes, peptide at 1 mg/mL): 49.2%
PAR-2 activity (calcium fluorescence, human keratinocytes, peptide at 1 mg/mL): 50.8%
B1: Ac-L-Phe-L-Phe-L-Trp-L-Phe-L-His-L-Ser-NH2 (peptide)
peptide: Ac-FFWFHS-NH2

Inhibition PAR-2 activity (calcium fluorescence, human keratinocytes, peptide at 1 mg/mL): 26.2%
PAR-2 activity (calcium fluorescence, human keratinocytes, peptide at 1 mg/mL): 73.8%
B2: Ac-L-Ser-L-Phe-L-Gln-L-Phe-L-Ile-L-Val-NH2 (peptide)
peptide: Ac-SFQFIV-NH2

Inhibition PAR-2 activity (calcium fluorescence, human keratinocytes, peptide at 1 mg/mL): 67.7%
PAR-2 activity (calcium fluorescence, human keratinocytes, peptide at 1 mg/mL): 32.3%
B3: Ac-L-Phe-L-Met-L-Trp-L-Phe-L-Ile-L-Ser-NH2 (peptide)
peptide: Ac-FMWFIS-NH2

Inhibition PAR-2 activity (calcium fluorescence, human keratinocytes, peptide at 1 mg/mL): 86.1%
PAR-2 activity (calcium fluorescence, human keratinocytes, peptide at 1 mg/mL): 13.9%
B4: Ac-L-Phe-L-Met-L-Trp-L-Asp-L-Ile-L-Val-NH2 (peptide)
peptide: Ac-FMWDIV-NH2

Inhibition PAR-2 activity (calcium fluorescence, human keratinocytes, peptide at 1 mg/mL): 40%
PAR-2 activity (calcium fluorescence, human keratinocytes, peptide at 1 mg/mL): 60%
B5: Ac-L-Phe-L-Met-L-Arg-L-Phe-L-His-L-Val-NH2 (peptide)
peptide: Ac-FMRFHV-NH2

Inhibition PAR-2 activity (calcium fluorescence, human keratinocytes, peptide at 1 mg/mL): 89.1%
PAR-2 activity (calcium fluorescence, human keratinocytes, peptide at 1 mg/mL): 10.9%
B6: Ac-L-Phe-L-Met-L-Gln-L-Phe-L-Ile-L-Ser-NH2 (peptide)
peptide: Ac-FMQFIS-NH2

Inhibition PAR-2 activity (calcium fluorescence, human keratinocytes, peptide at 1 mg/mL): 19.9%
PAR-2 activity (calcium fluorescence, human keratinocytes, peptide at 1 mg/mL): 80.1%
B7: Ac-L-Phe-L-Phe-L-Gln-L-Phe-L-His-L-Val-NH2 (peptide)
peptide: Ac-FFQFHV-NH2

Inhibition PAR-2 activity (calcium fluorescence, human keratinocytes, peptide at 1 mg/mL): 58.9%
PAR-2 activity (calcium fluorescence, human keratinocytes, peptide at 1 mg/mL): 41.1%
B8: Ac-L-Ser-L-Phe-L-Arg-L-Phe-L-Ile-L-Val-NH2 (peptide)
peptide: Ac-SFRFIV-NH2

Inhibition PAR-2 activity (calcium fluorescence, human keratinocytes, peptide at 1 mg/mL): 60.3%
PAR-2 activity (calcium fluorescence, human keratinocytes, peptide at 1 mg/mL): 39.7%
B9: Ac-L-Phe-L-Phe-L-Arg-L-Asp-L-His-L-Val-NH2 (peptide)
peptide: Ac-FFRDHV-NH2

Inhibition PAR-2 activity (calcium fluorescence, human keratinocytes, peptide at 1 mg/mL): 23%
PAR-2 activity (calcium fluorescence, human keratinocytes, peptide at 1 mg/mL): 77%
B10: Ac-L-Phe-L-Met-L-Gln-L-Phe-L-His-L-Ser-NH2 (peptide)
peptide: Ac-FMQFHS-NH2

Inhibition PAR-2 activity (calcium fluorescence, human keratinocytes, peptide at 1 mg/mL): 23.4%
PAR-2 activity (calcium fluorescence, human keratinocytes, peptide at 1 mg/mL): 76.6%
B11: Ac-L-Phe-L-Phe-L-Arg-L-Phe-L-His-L-Val-NH2 (peptide)
peptide: Ac-FFRFHV-NH2

Inhibition PAR-2 activity (calcium fluorescence, human keratinocytes, peptide at 1 mg/mL): 23.4%
PAR-2 activity (calcium fluorescence, human keratinocytes, peptide at 1 mg/mL): 76.7%
B12: Ac-L-Ser-L-Met-L-Gln-L-Phe-L-Ile-L-Val-NH2 (peptide)
peptide: Ac-SMQFIV-NH2

Inhibition PAR-2 activity (calcium fluorescence, human keratinocytes, peptide at 1 mg/mL): 39%
PAR-2 activity (calcium fluorescence, human keratinocytes, peptide at 1 mg/mL): 61%
B13: Ac-L-Phe-L-Phe-L-Arg-L-Asp-L-Ile-L-Val-NH2 (peptide)
peptide: Ac-FFRDIV-NH2

Inhibition PAR-2 activity (calcium fluorescence, human keratinocytes, peptide at 1 mg/mL): 24.1%
PAR-2 activity (calcium fluorescence, human keratinocytes, peptide at 1 mg/mL): 75.9%
B14: Ac-L-Phe-L-Phe-L-Gln-L-Phe-L-Ile-L-Val-NH2 (peptide)
peptide: Ac-FFQFIV-NH2

Inhibition PAR-2 activity (calcium fluorescence, human keratinocytes, peptide at 1 mg/mL): 14.8%
PAR-2 activity (calcium fluorescence, human keratinocytes, peptide at 1 mg/mL): 85.2%
B15: Ac-L-Phe-L-Phe-L-Trp-L-Asp-L-His-L-Val-NH2 (peptide)
peptide: Ac-FFWDHV-NH2

Inhibition PAR-2 activity (calcium fluorescence, human keratinocytes, peptide at 1 mg/mL): 64.9%
PAR-2 activity (calcium fluorescence, human keratinocytes, peptide at 1 mg/mL): 35.1%
B16: Ac-L-Ser-L-Met-L-Trp-L-Phe-L-His-L-Ser-NH2 (peptide)
peptide: Ac-SMWFHS-NH2

Inhibition PAR-2 activity (calcium fluorescence, human keratinocytes, peptide at 1 mg/mL): 67.8%
PAR-2 activity (calcium fluorescence, human keratinocytes, peptide at 1 mg/mL): 32.2%
B17: Ac-L-Ser-L-Met-L-Trp-L-Phe-L-Ile-L-Ser-NH2 (peptide)
peptide: Ac-SMWFIS-NH2

Inhibition PAR-2 activity (calcium fluorescence, human keratinocytes, peptide at 1 mg/mL): 26.5%
PAR-2 activity (calcium fluorescence, human keratinocytes, peptide at 1 mg/mL): 73.5%
B18: Ac-L-Phe-L-Met-L-Trp-L-Asp-L-Ile-L-Ser-NH2 (peptide)
peptide: Ac-FMWDIS-NH2

Inhibition PAR-2 activity (calcium fluorescence, human keratinocytes, peptide at 1 mg/mL): 38.4%
PAR-2 activity (calcium fluorescence, human keratinocytes, peptide at 1 mg/mL): 61.6%
B19: Ac-L-Phe-L-Phe-L-Trp-L-Asp-L-Ile-L-Ser-NH2 (peptide)
peptide: Ac-FFWDIS-NH2

Inhibition PAR-2 activity (calcium fluorescence, human keratinocytes, peptide at 1 mg/mL): 40.9%
PAR-2 activity (calcium fluorescence, human keratinocytes, peptide at 1 mg/mL): 59.1%
B20: Ac-L-Phe-L-Met-L-Arg-L-Phe-L-Ile-L-Val-NH2 (peptide)
peptide: Ac-FMRFIV-NH2

Inhibition PAR-2 activity (calcium fluorescence, human keratinocytes, peptide at 1 mg/mL): 15.1%
PAR-2 activity (calcium fluorescence, human keratinocytes, peptide at 1 mg/mL): 84.9%
B21: Ac-L-Ser-L-Met-L-Gln-L-Phe-L-His-L-Val-NH2 (peptide)
peptide: Ac-SMQFHV-NH2

Inhibition PAR-2 activity (calcium fluorescence, human keratinocytes, peptide at 1 mg/mL): 75.2%
PAR-2 activity (calcium fluorescence, human keratinocytes, peptide at 1 mg/mL): 24.8%
B22: Ac-L-Ser-L-Met-L-Arg-L-Phe-L-Ile-L-Val-NH2 (peptide)
peptide: Ac-SMRFIV-NH2

Inhibition PAR-2 activity (calcium fluorescence, human keratinocytes, peptide at 1 mg/mL): 16.2%
PAR-2 activity (calcium fluorescence, human keratinocytes, peptide at 1 mg/mL): 83.8%
B23: Ac-L-Ser-L-Phe-L-Arg-L-Phe-L-Ile-L-Ser-NH2 (peptide)
peptide: Ac-SFRFIS-NH2

Inhibition PAR-2 activity (calcium fluorescence, human keratinocytes, peptide at 1 mg/mL): 58.3%
PAR-2 activity (calcium fluorescence, human keratinocytes, peptide at 1 mg/mL): 41.7%
B24: Ac-L-Ser-L-Phe-L-Trp-L-Phe-L-His-L-Val-NH2 (peptide)
peptide: Ac-SFWFHV-NH2

Inhibition PAR-2 activity (calcium fluorescence, human keratinocytes, peptide at 1 mg/mL): 66.9%
PAR-2 activity (calcium fluorescence, human keratinocytes, peptide at 1 mg/mL): 33.1%
B25: Ac-L-Phe-L-Met-L-Arg-L-Asp-L-His-L-Ser-NH2 (peptide)
peptide: Ac-FMRDHS-NH2

Inhibition PAR-2 activity (calcium fluorescence, human keratinocytes, peptide at 1 mg/mL): 72.2%
PAR-2 activity (calcium fluorescence, human keratinocytes, peptide at 1 mg/mL): 27.8%
B26: Ac-L-Phe-L-Met-L-Trp-L-Phe-L-His-L-Ser-NH2 (peptide)
peptide: Ac-FMWFHS-NH2

Inhibition PAR-2 activity (calcium fluorescence, human keratinocytes, peptide at 1 mg/mL): 9.7%
PAR-2 activity (calcium fluorescence, human keratinocytes, peptide at 1 mg/mL): 90.3%
B27: Ac-L-Phe-L-Met-L-Gln-L-Asp-L-Ile-L-Val-NH2 (peptide)
peptide: Ac-FMQDIV-NH2

Inhibition PAR-2 activity (calcium fluorescence, human keratinocytes, peptide at 1 mg/mL): 35.9%
PAR-2 activity (calcium fluorescence, human keratinocytes, peptide at 1 mg/mL): 64.1%
B28: Ac-L-Phe-L-Phe-L-Gln-L-Asp-L-Ile-L-Val-NH2 (peptide)
peptide: Ac-FFQDIV-NH2

Inhibition PAR-2 activity (calcium fluorescence, human keratinocytes, peptide at 1 mg/mL): 66.3%
PAR-2 activity (calcium fluorescence, human keratinocytes, peptide at 1 mg/mL): 33.7%
B29: Ac-L-Phe-L-Phe-L-Trp-L-Phe-L-Ile-L-Ser-NH2 (peptide)
peptide: Ac-FFWFIS-NH2

Inhibition PAR-2 activity (calcium fluorescence, human keratinocytes, peptide at 1 mg/mL): 53.7%
PAR-2 activity (calcium fluorescence, human keratinocytes, peptide at 1 mg/mL): 46.3%
B30: Ac-L-Phe-L-Phe-L-Arg-L-Phe-L-Ile-L-Val-NH2 (peptide)
peptide: Ac-FFRFIV-NH2

Inhibition PAR-2 activity (calcium fluorescence, human keratinocytes, peptide at 1 mg/mL): 39.2%
PAR-2 activity (calcium fluorescence, human keratinocytes, peptide at 1 mg/mL): 60.8%
B31: Ac-L-Ser-L-Phe-L-Trp-L-Phe-L-Ile-L-Ser-NH2 (peptide)
peptide: Ac-SFWFIS-NH2

Inhibition PAR-2 activity (calcium fluorescence, human keratinocytes, peptide at 1 mg/mL): 35.1%
PAR-2 activity (calcium fluorescence, human keratinocytes, peptide at 1 mg/mL): 64.9%
B32: Ac-L-Phe-L-Met-L-Arg-L-Phe-L-Ile-L-Ser-NH2 (peptide)
peptide: Ac-FMRFIS-NH2

Inhibition PAR-2 activity (calcium fluorescence, human keratinocytes, peptide at 1 mg/mL): 22.6%
PAR-2 activity (calcium fluorescence, human keratinocytes, peptide at 1 mg/mL): 77.5%
B33: Ac-L-Phe-L-Met-L-Gln-L-Phe-L-His-L-Val-NH2 (peptide)
peptide: Ac-FMQFHV-NH2

Inhibition PAR-2 activity (calcium fluorescence, human keratinocytes, peptide at 1 mg/mL): 52.6%
PAR-2 activity (calcium fluorescence, human keratinocytes, peptide at 1 mg/mL): 47.4%
B34: Ac-L-Ser-L-Met-L-Gln-L-Phe-L-Ile-L-Ser-NH2 (peptide)
peptide: Ac-SMQFIS-NH2

Inhibition PAR-2 activity (calcium fluorescence, human keratinocytes, peptide at 1 mg/mL): 28.6%
PAR-2 activity (calcium fluorescence, human keratinocytes, peptide at 1 mg/mL): 71.4%
B35: Ac-L-Phe-L-Met-L-Gln-L-Phe-L-Ile-L-Val-NH2 (peptide)
peptide: Ac-FMQFIV-NH2

Inhibition PAR-2 activity (calcium fluorescence, human keratinocytes, peptide at 1 mg/mL): 20.7%
PAR-2 activity (calcium fluorescence, human keratinocytes, peptide at 1 mg/mL): 79.3%
B36: Ac-L-Phe-L-Met-L-Trp-L-Phe-L-Ile-L-Val-NH2 (peptide)
peptide: Ac-FMWFIV-NH2

Inhibition PAR-2 activity (calcium fluorescence, human keratinocytes, peptide at 1 mg/mL): 27%
PAR-2 activity (calcium fluorescence, human keratinocytes, peptide at 1 mg/mL): 73%
B37: Ac-L-Phe-L-Phe-L-Gln-L-Asp-L-Ile-L-Ser-NH2 (peptide)
peptide: Ac-FFQDIS-NH2

Inhibition PAR-2 activity (calcium fluorescence, human keratinocytes, peptide at 1 mg/mL): 26.4%
PAR-2 activity (calcium fluorescence, human keratinocytes, peptide at 1 mg/mL): 73.6%
B38: Ac-L-Ser-L-Phe-L-Trp-L-Phe-L-His-L-Ser-NH2 (peptide)
peptide: Ac-SFWFHS-NH2

Inhibition PAR-2 activity (calcium fluorescence, human keratinocytes, peptide at 1 mg/mL): 37.4%
PAR-2 activity (calcium fluorescence, human keratinocytes, peptide at 1 mg/mL): 62.6%
B39: Ac-L-Phe-L-Phe-L-Gln-L-Phe-L-His-L-Ser-NH2 (peptide)
peptide: Ac-FFQFHS-NH2

Inhibition PAR-2 activity (calcium fluorescence, human keratinocytes, peptide at 1 mg/mL): 9.9%
PAR-2 activity (calcium fluorescence, human keratinocytes, peptide at 1 mg/mL): 90.1%
B40: Ac-L-Ser-L-Phe-L-Gln-L-Phe-L-His-L-Ser-NH2 (peptide)
peptide: Ac-SFQFHS-NH2

Inhibition PAR-2 activity (calcium fluorescence, human keratinocytes, peptide at 1 mg/mL): 13.5%
PAR-2 activity (calcium fluorescence, human keratinocytes, peptide at 1 mg/mL): 86.5%
B41: Ac-L-Ser-L-Met-L-Trp-L-Phe-L-His-L-Val-NH2 (peptide)
peptide: Ac-SMWFHV-NH2

Inhibition PAR-2 activity (calcium fluorescence, human keratinocytes, peptide at 1 mg/mL): 39%
PAR-2 activity (calcium fluorescence, human keratinocytes, peptide at 1 mg/mL): 61%
B42: Ac-L-Ser-L-Phe-L-Gln-L-Phe-L-Ile-L-Ser-NH2 (peptide)
peptide: Ac-SFQFIS-NH2

Inhibition PAR-2 activity (calcium fluorescence, human keratinocytes, peptide at 1 mg/mL): 59.3%
PAR-2 activity (calcium fluorescence, human keratinocytes, peptide at 1 mg/mL): 40.7%
B43: Ac-L-Phe-L-Phe-L-Gln-L-Phe-L-Ile-L-Ser-NH2 (peptide)
peptide: Ac-FFQFIS-NH2
